Assay results as given in patent US20130047297A1, “POLYNUCLEOTIDE MOLECULES FOR GENE REGULATION IN PLANTS” (priority 2010, published 2013).
d = 2'-deoxy (DNA); r = 2'-OH (RNA)

Experiments:
Assay type in all cases: in vivo
[1] = tested on: Glyphosate-sensitive Palmer amaranth (Amaranthus palmeri) plants; experiment: HPPD, PPO, TIF anti-sense ssDNA with mesotrione, fomesafen, atrazine, plant height (Example 28, Tables 18 and 19); conditions: for Plant height (mm): four days after herbicide treatment
Protocol: The herbicidal activity of ssDNA polynucleotides that target the enzymes […] and protoporphyrinogen oxidase (PPO), and a transcription initiation factor (TIF), and their effect on the herbicide activity when used in combination with the herbicides mesotrione, fomesafen, and atrazine in Palmer amaranth was investigated.
Glyphosate-sensitive Palmer amaranth (Amaranthus palmeri) plants were grown in 4-inch square pots with Sun Gro® Redi-Earth seedling mix containing 3.5 kg/cubic meter Osmocote® 14-14-14 fertilizer in a greenhouse with 14 h photoperiod and a daytime temperature of 30 degrees Celsius and night temperature of 20 degrees Celsius. The plants were sub-irrigated as necessary.
Plants at 10 to 15 cm height were pre-treated manually with 40 microliters (4 fully expanded mature leaves were treated with 10 microliters of solution per leaf on each plant) of a buffer-surfactant solution (as a control; 0.5% Silwet L-77 and 2% ammonium sulfate), or a buffer-surfactant-ssDNA polynucleotide mixture of the anti-sense oligonucleotides targetting HPPD, PPO, or TIF. Some plants were left untreated and were used as controls. […] Crop oil concentrate (COC) at 1% was added to all herbicide treatments. A low rate of each herbicide ([…], equivalent to ⅛ of the recommended field rate; […], equivalent to 1/22 of the recommended field rate; […], equivalent to ⅛ of the recommended field rate,) was used to be able to detect any improvement of herbicide activity by the oligonucleotide mixture.
Plant height was determined at four days after herbicide treatment. Data were collected from one experiment with four replications per treatment.

[2] = tested on: Palmer amaranth; experiment: Combinations of EPSPS, TIF and ddATPase polynucleotides then glyphosate (Example 26, Tables 12 and 13)
Protocol: Solutions of the polynucleotides were prepared and applied to the leaves of Palmer amaranth using the protocols described in Table 12.

[3] = tested on: Palmer amaranth phytoene desaturase (PDS); experiment: Sequence specificity of PDS dsRNA on Palmer amaranth, bleaching (Example 11); conditions: for bleaching of leaves: 0.6 micromolar polynucleotide, 40 microliters per plant, observed 3 days post treatment; for bleaching of leaves (FIG. 17): separate assay
Protocol: Palmer amaranth plants having 16 copies of EPSPS and 5-8 inches high were treated with 0.1% Silwet L-77 solution freshly made with ddH2O. Four fully expanded leaves per plant were dipped into the Silwet L-77 solution for a few seconds, and allowed to dry for 30 minutes to 1 hour before application of the polynucleotide composition. Individual polynucleotide solutions were made for each of the 678 by Palmer PDS dsRNA, 198 by Palmer PDS dsRNA, the 685 by Nicotiana benthamiana PDS dsRNA, and the 192 by Nicotiana benthamiana PDS dsRNA (0.6 micromolar polynucleotide in 0.01% Silwet L-77, 5 mM sodium phosphate buffer, pH 6.8). 10 microliters of polynucleotide solution (or buffer as a control) was applied to the top surface of each of the four pre-treated leaves per plant to provide a total of 40 microliters for each plant. Plants were kept in a growth chamber, and leaf bleaching was observed 3 days post treatment.

[4] = tested on: mRNA encoding phytoene desaturase in tobacco (Nicotiana benthamiana); experiment: Topical PDS dsRNA on tobacco, bleaching (Example 4); conditions: for plant outcome: 15 days after treatment with dsRNA; for phytoene desaturase silencing, leaf bleaching: day 9 after dsRNA treatment, about 0.6 micromoles of dsRNA per plant; for Northern blot analysis, siRNAs corresponding to the dsRNAs: in vivo
Excerpt: This example illustrates the utility of the polynucleotide molecules of the invention as herbicidal agents. Two dsRNA polynucleotide molecules were designed to target overlapping segments of mRNA encoding phytoene desaturase in tobacco (Nicotiana benthamiana). With reference to SEQ ID NO:2 and FIG. 5, a dsRNA targeting a 192 nt length (shown in bold in FIG. 5) and a 685 nt length (shown in underline in FIG. 5) of the mRNA were made using an Ambion® MEGAscript® kit. Separate dsRNA solutions were prepared. Tobacco plant leaves were pretreated with surfactant solution prepared as in Example 1 and then treated with either one of the dsRNA solutions applying about […] of dsRNA per plant.

[5] = pre-treatment: Buffer (0.5% Silwet L-77 and 2% ammonium sulfate), herbicide 24 h later (mesotrione 13, fomesafen 23 grams per hectare, 1% COC)
[6] = pre-treatment: Untreated, herbicide only (mesotrione 13, fomesafen 23, atrazine 170 grams per hectare of active ingredient, 1% COC)
[7] = protocol 3, 29 g/acre, copy number 16, 13 DAT

Molecule: CS(=O)(=O)c1ccc(C(=O)C2C(=O)CCCC2=O)c([N+](=O)[O-])c1 [mesotrione]
- Plant height (mm) [1, 5]: 179 mm
- Plant height (mm) [1, 6]: 180 mm

Molecule: IDT [3]: Palmer/EPSPS dsRNA, SEQ ID NO. 87, 88 (chain 1 GGUCGACAACUUGCUGUAUAGUGA; chain 2 AUCACUAUACAGCAAGUUGUCGACCUC; chain 1: sugars from the 5' end r23 d1, 3' dT, backbone not given here; chain 2: RNA, backbone not given here)
- Results: % stunted [2, 7]: 51% stunted

Molecule: IDT [5]: Palmer/EPSPS dsRNA (21-mer) with blunt ends, SEQ ID NO. 91, 92 (chain 1 AACAUGAACAAAAUGCCAGAU; chain 2 AUCUGGCAUUUUGUUCAUGUU; RNA, backbone not given here)
- Results: % stunted ([2]; protocol 1, 0.29 g/acre, copy number 33, 54, 55, 18 DAT): 71%
- Results: % stunted ([2]; protocol 1, 0.29 g/acre, copy number 34, 36, 54, 22 DAT): 14.1%
- Results: % killed ([2]; protocol 1, 2.9 g/acre each, copy number 34, 36, 54, 22 DAT): 100% kill
- Results: % killed ([2]; protocol 1, 2.9 g/acre, copy number 33, 54, 55, 18 DAT): 100% killed

Molecule: CCNc1nc(Cl)nc(NC(C)C)n1 [atrazine]
- Plant height (mm) [1, 6]: 146 mm

Molecule: IDT [2]: Palmer/EPSPS dsRNA, SEQ ID NO. 85, 86 (chain 1 AGUUGGUGGGCAAUCAUCAAUUG; chain 2 AACAAUUGAUGAUUGCCCACCAACUCU; chain 1: RNA, 3' dTdT, backbone not given here; chain 2: RNA, backbone not given here)
- Results: % control [2, 7]: 0% control

Molecule: CS(=O)(=O)NC(=O)c1cc(Oc2ccc(C(F)(F)F)cc2Cl)ccc1[N+](=O)[O-] [fomesafen]
- Plant height (mm) [1, 5]: 139 mm
- Plant height (mm) [1, 6]: 158 mm

B1: dsRNA targeting a 192 nt length: dsRNA to Nicotiana benthamiana PDS, positions 914-1105 of SEQ ID NO:38 (nucleic acid, listed as Nicotiana benthamiana)
DNA: ACAGATTTCTTCAGGAGAAACATGGTTCAAAAATGGCCTTTTTAGATGGTAACCCTCCTGAGAGACTTTGCATGCCGATTGTGGAACATATTGAGTCAAAAGGTGGCCAAGTCAGACTAAACTCACGAATAAAAAAGATCGAGCTGAATGAGGATGGAAGTGTCAAATGTTTTATACTGAATAATGGCAGTA
modifications: dsRNA of this region
- bleaching of leaves [3]: did not show bleaching of leaves
- plant outcome [4]: one half of the treated plants appeared to be dead and the other half of the plants had most of the above ground tissues bleached
- phytoene desaturase silencing, leaf bleaching [4]: visible leaf bleaching on apical leaves
- Northern blot analysis, siRNAs corresponding to the dsRNAs [4]: presence of siRNAs

B2: HPPD anti-sense ssDNA oligonucleotides: 8 HPPD anti-sense ssDNA oligonucleotides (SEQ ID NOS:141-148) (nucleic acid)
antisense 1: TCCGTAGCTTACATACCGAAG
antisense 2: TCCAAGTGAATAGGAGAAACA
antisense 3: AGCAGCTTCTGCGTCTTCTAC
antisense 4: ACAGCACGCACGCCAAGACCG
antisense 5: CGATGTAAGGAATTTGGTAAA
antisense 6: CGAGGGGATTGCAGCAGAAGA
antisense 7: GTAGGAGAATACGGTGAAGTA
antisense 8: GACCCCAAGAAAATCGTCTGC
modifications: DNA, backbone not given here
- growth reduction relative to the buffer-surfactant control ([1]; ssDNA pre-treatment without herbicide): 32%
- Palmer amaranth plant height ([1]; ssDNA pre-treatment without herbicide, 40 microliters per plant in 0.5% Silwet L-77 and 2% ammonium sulfate, buffer-surfactant control 185 mm): 125 mm

B3: 678 by Palmer PDS dsRNA: dsRNA to positions 317-994 of SEQ ID NO:37 (nucleic acid, listed as Amaranthus palmeri)
sense: TAGGAGGAAAGGTTGCAGCGTGGAAGGATGAGGATGGTGACTGGTATGAGACTGGGCTACATATATTCTTTGGGGCATATCCAAATGTCCAAAATCTATTTGGAGAACTTGGTATAAATGACCGACTGCAATGGAAGGAGCACTCTATGATTTTTGCAATGCCCAGCAAGCCCGGTGAATTCAGTCGCTTTGATTTTCCCGAAATCCTGCCTGCACCATTAAATGGCATATGGGCAATCCTAAGAAATAATGAAATGCTAACCTGGCCAGAAAAAATCAAGTTTGCCATTGGCTTGTTGCCTGCTATGGCAGGCGGACAGTCATATGTTGAAGCACAAGATGGTTTGAGTGTCCAAGAGTGGATGAGAAAACAAGGAGTACCCGATCGTGTAACTGATGATGTGTTTATTGCCATGTCAAAGGCACTGAACTTCATAAATCCCGATGAACTTTCAATGCAGTGCATCTTGATTGCTCTGAACCGATTCCTGCAGGAGAAACATGGTTCTAAGATGGCCTTCCTAGACGGAAACCCTCCAGAGAGGCTGTGCATGCCTATTGTTAAACACATCGAGTCACTAGGTGGTGAAGTTAAACTTAACTCTCGTATACAAAAGATTCAGTTGGACCAGAGTGGAAGCGTGAAGAGTTTTTTGCTAAATAACGGGAGGGAAATAC
modifications: complementary strand
- bleaching of leaves [3]: showed bleaching of leaves
- bleaching of leaves (FIG. 17) [3]: showed bleaching of leaves

B4: dsRNA targeting a 685 nt length: dsRNA to Nicotiana benthamiana PDS, positions 421-1105 of SEQ ID NO:38 (nucleic acid, listed as Nicotiana benthamiana)
DNA: GCAAGAGATGTCCTAGGTGGGAAGGTAGCTGCATGGAAAGATGATGATGGAGATTGGTACGAGACTGGGTTGCACATATTCTTTGGGGCTTACCCAAATATGCAGAACCTGTTTGGAGAACTAGGGATTGATGATCGGTTGCAGTGGAAGGAACATTCAATGATATTTGCGATGCCTAACAAGCCAGGGGAGTTCAGCCGCTTTGATTTTCCTGAAGCTCTTCCTGCGCCATTAAATGGAATTTTGGCCATACTAAAGAACAACGAAATGCTTACGTGGCCCGAGAAAGTCAAATTTGCTATTGGACTCTTGCCAGCAATGCTTGGAGGGCAATCTTATGTTGAAGCTCAAGACGGTTTAAGTGTTAAGGACTGGATGAGAAAGCAAGGTGTGCCTGATAGGGTGACAGATGAGGTGTTCATTGCCATGTCAAAGGCACTTAACTTCATAAACCCTGACGAGCTTTCGATGCAGTGCATTTTGATTGCTTTGAACAGATTTCTTCAGGAGAAACATGGTTCAAAAATGGCCTTTTTAGATGGTAACCCTCCTGAGAGACTTTGCATGCCGATTGTGGAACATATTGAGTCAAAAGGTGGCCAAGTCAGACTAAACTCACGAATAAAAAAGATCGAGCTGAATGAGGATGGAAGTGTCAAATGTTTTATACTGAATAATGGCAGTA
modifications: dsRNA of this region
- bleaching of leaves [3]: did not show bleaching of leaves
- plant outcome [4]: one half of the treated plants appeared to be dead and the other half of the plants had most of the above ground tissues bleached
- phytoene desaturase silencing, leaf bleaching [4]: visible leaf bleaching on apical leaves
- Northern blot analysis, siRNAs corresponding to the dsRNAs [4]: presence of siRNAs

B5: 198 by Palmer PDS dsRNA: dsRNA to positions 797-994 of SEQ ID NO:37 (nucleic acid, listed as Amaranthus palmeri)
sense: ACCGATTCCTGCAGGAGAAACATGGTTCTAAGATGGCCTTCCTAGACGGAAACCCTCCAGAGAGGCTGTGCATGCCTATTGTTAAACACATCGAGTCACTAGGTGGTGAAGTTAAACTTAACTCTCGTATACAAAAGATTCAGTTGGACCAGAGTGGAAGCGTGAAGAGTTTTTTGCTAAATAACGGGAGGGAAATAC
modifications: complementary strand
- bleaching of leaves [3]: showed bleaching of leaves
- bleaching of leaves (FIG. 17) [3]: showed bleaching of leaves
